Measurements reported in the DeepSol protein solubility set.

Experiment: soluble on expression in E. coli; label from the status in PepcDB or PDB records

Sequence | soluble on expression in E. coli
MSLKIVYITENAEKLAKDVKSVFDYYFYDNEVFNIKDFEITGNETGFVFIMASGIVLRKYIPEIQNDKLKDPFVILMDESKKHVVPLLSNHIGGGNYFSDLIGNFLNLDVVKTTATDVNGKIGIDELSKIYFLENPLKKDILSVNKKVLSEKPDLIIPKAWKTSKKLLNSYNVSFHDESHVLVDDIVLKPKTVSLGLGSRRNIEKSKVYWAVKKALYLRDIPTWRIDTFSTVSVKKDEYGILKTAERFDKDLFIFEIDELNEIYSKYPLIRSEFVFKTIGTYGVSEPCAILGISKITGETDFEMKKLVLNKMKKDGVSVSIAVEGHHHHHH | not soluble
AGFQLNEFSSSGLGRAYSGEGAIADDAGNVSRAPALITMFDRPTFSAGAVYIDPDVNISGTSPSGRSLKADNIAPTAWVPNMHFVAPINDQFGWGASITSNYGLATEFNDTYAGGSVGGTTDLETMNLNLSGAYRLNNAWSFGLGFNAVYARAKIERFAGDLGQLVAGQIMQSPAGQTQQGQALAATANGIDSNTKTAHLNGNQWGFGWNAGILYELDKNNRYALTYRSEVKIDFKGNYSSDLNRAFNNYGLPIPTATGGATQSGYLTLNLPEMWEVSGYNRVDPQWAIHYSLAYTSWSQFQQLKATSTSGDTLFQKHEGFKDAYRIALGTTYYYDDNWTFRTGIAFDDSPVPAQNRSISIPDQDRFWLSAGTTYAFNKDASVDVGVSYMHGQSVKINEGPYQFESEGKAWLFGTNFNYAFHHHHHH | soluble
MGSDKIHHHHHHMDRKMNFVMISPHFPANFETFAHRLYENGINTLGIADTPYEQLSQGLRDHLTEYYRVDNMEDYDQVYRAVAYFAHKYGRIDRIESHNEYWLELDAHLRTDFNVFGYKNEDMLSIKTKARMKEIFRKTGIKVARGRVFTSTEDARALTKELGFPVIIKPNSGVGASDTYKIKSAEELEDFFGYQNPTVDYIMEEFIDGDIVTFDGLTDHEGNIVFYSSLEYSEAVLDTVEKDNDMFYYVPRDISPELIKLGEQCVEAFNVKERFFHFEFFRIKKTKDLMALEVNCRPPGGLTIDMWDYANDFDVFNEYAHIVKDNRFEAHITRPYNVVYIARKANKHYAHSIEDIETKFGHHIIEIESVPGIFAKIMGEVGILARTETMNEMRDIICFAHAKI | not soluble
MHILVVSVNYRTAPVEFREKLTFQAAELERAMTTLQNQKSVLENVIVSTCNRTEIYAVVDQLHTGRYYIKKFLADWFQLEIEEVAPYLTIFEQDGAIDHLFRVTCGLDSMVVGETQILGQIKDSFLEAQQVKATGTIFNELFKQVITLAKRAHSETTIGESAMSVSYAAVELGKKIFGELTDCHVLILGAGKMGELALQNLYGSGARKVTVMNRTLSKAEIMAEKYMGHAKPLSELQCALLEADILISSTGASDYVITKEMMTKVEKMRSGRPLFMVDIAVPRDIDPAIDELEGSFLYDIDDLQGVVEANRAERLKEAEKIQFMIEEEIVLFKTWLSTLGVVPLISALRDKALAIQSETMESLERKIPNLSDRERKVISKHTKSIINQLLKDPILVAKEIAAEEGADEKLALFAKIFDLEMEDVESRAEEVEHKRVWTPSVPSL | not soluble
TITNILLVGVGGQGILLASEILSEAFMLAGFDVKKSEIHGMSQRGGSVVSHVRYGKEVHSPIVPEGEGDILFGFELMETYRYLPLLRKGGTVVANDLRISPPSVLLGQASYPDDLPDRIRALFPDFLLVDGQHLAAEAGNVRAANTVLLGAVAKQLDIPDECWHKALERMVPPKALDVNRKAFQLGRAL | not soluble
MDSENSSSHSISSPQMFQNTHNNSAMEDNLLSRPMNNESLQMIIGYLRRNGLTETEELLTREAGPVLRVEGSNGLPPEEAISVEFDTFVQHANDCTDVVQAEFSQLLFPIFAHSYIALIEKHAATARIFFNRFKIFIPECFSEFVYQLSLIEDAMTLRANEHVHILRENKFLVRLSRPTLKHLESIQTRVIGVKNIIAKHICIENADEVSTNRTTIETQMGGILGVTSKSDKRHKMMFSVLKDELMQNIEKRKTKGKDWKDMGKKMQTHCPQADRIPLPPISEHLREERRNWLRDVGKMAIISAESPVSICMYTTVNAPIGVASCDFTDDSSLIAMGLSDSSIVMNAMDPMNKMKKLRDMEFLDKIDIETADNVQSQMFDLQGSTTSVRYTGHGGPVFSVNFSPDRRLLISSAGDRTVRLWSMETQRNAVIYRTPAVAQFCSRGYYFATASADKTAAMWSTDRMHPLRIFADPYGDVGCIDYHPNCNYIAGGSDDRYVRVWDVCSGTRVRIFSGHKASIIAVKFSPCGRYIVSLDAIGNLMIWDLAYQRLVAAEITEQAGTKGSITFSRDGGVFAVSHGNSSIQLYSLDTLIGTVLAAGQNDSYIEPKVNLDGFNIGSYATKETAVIGLHFTRRNLLLGFGCFGQ | soluble
MSEAEYFSHFISNGNGKLLEIPQRRGRQDGVFIDWLSFTLHEDSLLKVSGCPLVSDAEYMFVLSKKLEEILGFGITSRCKSKGNKFYDSMFRLGSEEVDYGEVHYGGQRNTVLIELKGVGCNIANPGWELRLKQFLEDSLRPRITRVDLALDFFDGEYTPEQALLDHDNGFFDNSNMRPKSEMVGTAWRREDGSGKTFYVGRKKNSRFVRVYEKGRQLGDKESKWVRFEIQFNHGDMEIPLDILINQGSYFSGAFPICQKFKNMPNPERFDYRKKVANLTFQHKLRYAKNAVGKLINFMFDMGFDSDEIVRYLKADLGYPKGLEPEKYSLAGLKESLKFGFIHEQPDVDLEVELEELGIIKFKQSDKFDPDKRLFDPHHDVESERQYQLYLDRMYDLHANQN | not soluble
MSFFTKEQQPKENCPPITVEKARQLFEFNTNHLSLSDYHHQTVLKTSKQLVAQHLMPNATDNLSQHFLMNYKANNNYLGFQASIVDFFTDSAVANFSSSYVYESQEKIIRLPKPTKISTALSTCIIKRRSHRQFSDRQMPLQDLSNILYYACGVSSQASIRDGASDKITLRNCASGGGLYPIHLVFYARNISKLIDGFYEYLPYQHALRCYRHSSEENVRDFAEYGAINAENCNIIIIYVYHYMKNTRKYGNQATAYAFIESGEIAQNIQLTATALTYGSIDIGGYNKEYLQELLDLDGLGEHVIHMTLVGTKESQ | not soluble
MSQPAYRLFNVELKRREQLSPALTRFVFGGPEVAEMKTLAADQRIKIFFPDASGQPPSLPGGSEWYQAYRSVEPARRPPMRTYTIRALRAEQEEVDVEFVLHGENGPASAWATHARIGDRLQLAAPNRQYGDDPGGYEWKPPAGVRHILLIADETALPAVAGILEELAGETEPPVVEAFLEVPGEADILDLPAIPAARLHWLPRHQAGIHSRNGERMIEAARQARLPEREVAGGAAQELEDIDIDEEILWELASPESGSFYAWVAGESAAVMAIRRYLVQERGIDKRHLTLMGYWRLGKVFD | not soluble
MTRSRLKIDRHGKEEDAMDLIDTHQHLILRGKLGYAWTRGEPSLAGSFTRADYAALVEGSGVIGTIFMETGVDDGDYRAEARLVAGMVGEGTLPMFGQIASCRPETDQGFDAWLEECRHLKVVGFRRILQVMPDDTSRAENYRRNVRKIGKAGWPVDLCFHSRQLAIAAELVRACPDVRFMLDHCGTPDIAGNDFPAWSERMADLASLPNLFVKLSGVTAYCAPGQVTLESVRPYVETVLKLFGPARMVWGGDWPVVDLGSGLPEWIAMTREFLSTLSPDEQASIGHGNARRFYLATLEHHHHHH | not soluble
MELLLYSLDNEGPIRFIQITDTHLVEAADGHLLGLETQNSLEHVLSSVQSENDQFDFFVVSGDISQDGSLSSYQRLHESLAPFNVPSFWFPGNHDEMSNMKVVCQDTEHLVNIIRTPHWQLVLLNSQVEGAVFGNLGDDQFELLERALTERPDLHTLISLHHHPIPMESNWMDKIGVKNGDKLMAMARKYPKVKCILWGHVHQDSDRMVDGIRMLSTPSTCVQFMPKSKDFNIDMIAPGYRRLQLNPDGSIETEMSRVEGIEFEVDLSVKGY | soluble
MGSDKIHHHHHHMGGNSLSKELYDWLGYSSETATASAFVQQRDKIRPEALKLLFHEFTRLTVSENSLQDYRLLAVDGSDLRLPSNSKDGFSSIRNSEDSKNYNLVHLDAMYDLMGKVYVDASVQSKKGMNEHKALVSMVDQSEINGNVIAIMDRGYESFNNIAHFQEKSWYYIIRAKESYGIISRLSLPDYPEYDEEIMLTLTRRQTKETLPLLKAYPHRYRWIQPHTTFDFIKPKDSKFYDLHFRAVRFAIADGVYETVYTNLNAEDFPPEKLKQLYNLRWGIETSFKELKYAVGLASLHSKKKDFILQEIFARLILYNYSSIIMHHISISEDLRVNFPVALNICRQFLRELIPAVQVLKLIGKHLSPIRPGRQFPRHQNPISAVGFQYRII | not soluble
